Data taken from patent publication US7419813B2, “Fructosyl peptide oxidase” (Kikkoman Corporation, priority 2001, dated 2008).

Experiments:
Format in all cases: biochemical
[1] = Optimum pH of the enzyme reaction; conditions: purified oxidase, 30° C.; for optimum pH (range): relative activities of 70% or higher
Method: For example, 200 mM acetic acid buffer (pH 3.0-6.0), 200 mM MES-NaOH (pH 6.0-7.0), 200 mM Tris buffer (pH 6.8-9.0), 200 mM potassium phosphate buffer (pH 6.5-8.0) and 200 mM glycine buffer (pH 8.0-12.0) are used as buffers to perform enzyme reactions at the indicated pH at 30° C., thereby determining optimal pH. For example, the oxidases of the invention may have an optimal pH at 5.0-9.0, preferably pH 6.0-8.0. For example, 200 mM acetic acid buffer (pH 3.0-6.0), 200 mM MES-NaOH (pH 6.0-7.0), 200 mM Tris buffer (pH 6.8-9.0), 200 mM potassium phosphate buffer (pH 6.5-8.0) and 200 mM glycine buffer (pH 8.0-12.0) are used as buffers to perform enzyme reactions at the indicated pH at 30° C., thereby determining optimal pH. For example, the oxidases of the invention that have less action on ε-fructosyl lysine may have an optical pH at 5.0-9.0, preferably at 6.0-8.0. Enzyme reaction was monitored in 200 mM acetic acid buffer (pH 3.0-6.0), 200 mM MES-NaOH (pH 6.0-7.0), 200 mM Tris buffer (pH 6.8-9.0), 200 mM potassium phosphate buffer (pH 6.5-8.0) or 200 mM glycine buffer (pH 8.0-12.0) at the indicated pH values at 30° C. […] Enzyme reaction was monitored in 200 mM acetic acid buffer (pH 4.0-6.0), 200 mM MES-NaOH (pH 6.0-7.0), 200 mM Tris buffer (pH 7.0-8.5), 200 mM potassium phosphate buffer (pH 6.0-8.0) or 200 mM glycine buffer (pH 8.0-9.0) at the indicated pH values at 30° C.

[2] = Enzyme activity assay, ε-fructosyl lysine substrate; conditions: for Substrate specificity (% relative activity) εFL: crude enzyme sample; for relative activity for ε-fructosyl lysine: purified oxidase, compared to 100% activity for fructosyl valyl histidine
From the text: (§1) Enzyme activities of the oxidase of the invention and the oxidase of the invention that have less action on ε-fructosyl lysine (hereinafter, the term “the oxidases of the invention” may comprise both the oxidase of the invention and the oxidase of the invention that have less action on ε-fructosyl lysine) may principally be determined by determining the amount of α-ketoaldehyde, peptide, hydrogen peroxide or the like which are produced through enzyme reaction or by determining the amount of oxygen consumed by the enzyme reaction. Hereinafter, a method for determining the amount of hydrogen peroxide will be described as one example. Unless otherwise noted, fructosyl valyl histidine is used as a substrate for determining the activities of the oxidases of the invention. Titer of the enzyme is defined such that an amount of enzyme for producing 1 μmol hydrogen peroxide per minute is 1U as determined using a fructosyl valyl histidine substrate. 624 mg of fructosyl valyl histidine is dissolved in ion exchange water to a constant volume of 10 ml. Alternatively, fructosyl glycine or ε-fructosyl lysine of 357 mg or 462 mg, respectively, may be dissolved in ion exchange water to a constant volume of 10 ml to be used as a substrate. Fructosyl valine histidine was prepared as described in Japanese Patent Application Laid-Open (kohyo) No. 2001-95598. Fructosyl glycine and ε-fructosyl lysine were prepared according to a method of Horiuchi et al. (Agric. Biol. Chem., 53, 103-110, 1989; Agric. Biol. Chem., 55, 333-338, 1991). 2.7 ml of Reagent 1, 100 μl of Reagent 2 and 100 μl of enzyme solution are mixed and pre-heated at 30° C. for 5 minutes. Then, 100 μl of Reagent 3 is added and thoroughly mixed to determine absorbance at 510 nm using a spectrophotometer (U-[…], Hitachi, Ltd.). Measurement values indicate changes in the absorbance per minute at 510 nm after 1 to 3 minutes. A control solution was prepared in the same manner as described above except 100 μl ion exchange water was added instead of 100 μl Reagent 3. A standard solution of hydrogen peroxide and ion exchange water were used instead of Reagent 3 and the enzyme solution, respectively, to prepare a graph showing relationship with respect to the level of color. Referring to this graph, micromole of hydrogen peroxide produced per minute at 30° C. is calculated and used as the unit for expressing the activity of the enzyme solution. The presence of action on ε-fructosyl lysine can be determined in the same manner by using Reagent 3 (substrate solution) containing ε-fructosyl lysine substrate instead of fructosyl valyl histidine substrate.

[3] = Reaction assay in 96-well plate with fructosyl glycine (control substrate); conditions: purified enzyme; control substrate set to 100%
Method: Fructosyl glycine (4.5 mg) was dissolved in 1 ml of water.
Developer solution consisted of the following materials:
• (a) Enzyme purified from Achaetomiella virescens ATCC 32393 • (b) Enzyme purified from Eupenicillium terrenum ATCC 18547 • (c) Enzyme purified from Coniochaeta sp. NISL 9330 (FERM BP-7798) • (d) 20 mM phosphate buffer, pH 8.0 (2) Reaction Assay
Reaction substrate (D: a, b) (20 μl), developer solution (E) (20 μl) and the inventive oxidase (F: a-d) (10 μl) were mixed in 96-well assay plates for reaction. Each plate was monitored at 510 nm using a plate reader (Immuno Mini NJ-2300, available from Nalge Nunc International K. K.) for 70 minutes. The results are shown as % relative activity when compared to 100% activity for fructosyl glycine (Table 4). […] It was confirmed that all of the inventive oxidases were reactive with the protease-digested products of α-glycated hexapeptide.

[4] = Enzyme activity assay, fructosyl glycine substrate; conditions: for Substrate specificity (% relative activity) FG: crude enzyme sample; for relative activity for fructosyl glycine: purified oxidase, compared to 100% activity for fructosyl valyl histidine
From the text: as §1

[5] = reference substrate set to 100%
[6] = relative to activity for fructosyl valyl histidine (100%)
[7] = relative to activity for ε-fructosyl lysine (100%)

Molecule	pH of maximum activity (most preferable pH) [1] [pH]	optimum pH (range) [1]	Substrate specificity (% relative activity) εFL [2, 5] [%]	Substrate specificity (% relative activity) εFL [2, 6] [%]	relative activity for ε-fructosyl lysine [2] [%]	% relative activity on fructosyl glycine [3] [%]	Substrate specificity (% relative activity) FG [4, 6] [%]	Substrate specificity (% relative activity) FG [4, 7] [%]	relative activity for fructosyl glycine [4] [%]
Eupenicillium terrenum ATCC 18547: fructosyl peptide oxidase produced by Eupenicillium terrenum ATCC 18547 with less action on ε-fructosyl lysine; amino acid sequence SEQ ID NO: 3 (protein, listed as Eupenicillium terrenum) MAHSRASTKVVVVGGGGTIGSSTALHLIRSGYTPSNITVLDVYKTPSLQSAGHDLNKIMGIRLRNGPDLQLSLESLDMWQNDELFKPFFHQVGMIDCSSSKEGIENLRRKYQTLLDAGIGLEKTNVWLESEDEILAKAPNFTREQVKGWKGLFCTDGGWLAAAKAINAIGIFLQDKGVKFGFGGAGTFQQPLFAADGKTCIGLETTDGTKYFADKVVLAAGAWSPTLVDLEDQCVSKAWVFAHIQLTPKEADAYKNVPVVYDGEYGFFFEPNEYGVIKVCDEFPGFSRFKLHQPYGAASPKMISVPRSHAKHPTDTYPDASEVTIRKAIARFLPEFKDKELFNRTMCWCTDTADANLLICEHPKWKNFILATGDSGHSFKLLPNIGKHVVELLEGSLSQEMAGAWRWRPGGDALRSRRGAPAKDLAEMPGWKHDAHL	7.0	6.0-8.0 pH	100	9.78	9.78	100	182	1862	182
Coniochaeta sp. NISL 9330: fructosyl peptide oxidase produced by Coniochaeta sp. NISL 9330 (FERM BP-7798) with less action on ε-fructosyl lysine; amino acid sequence SEQ ID NO: 1 (protein, listed as Coniochaeta sp.) MTSNRADTRVIVVGGGGTIGSSTALHLVRSGYAPANITVLDTFEIPSAQSAGHDLNKIMGIRLRNKVDLQMSLEARQMWKEDELFQPFFHNTGRMDCEHTPEGIEDLKKQYQALHDAGAGLEKTHAWLDNEDEILSKMPLLQRDQIQGWKAIWSQDGGWLAAAKAINAIGQFLKERGVKFGFGGAGSFKQPLFDDEGTTCIGVETADGTKYYADKVVLAAGAWSPTLVDLEDQCCSKAWVYAHIQLTPEEAAEYKGVPVVYNGEFGFFFEPNEFGVIKVCDEFPGFSRFKEHQPYGAPSPKHISVPRSHAKHPTDTYPDASEVSIKKAIATFLPRFQDKELFNRALCWCTDTADAALLMCEHPKWKNFILATGDSGHSFKILPNVGKHVVELIEGRLPEEMAYQWRWRPGGDALKSRRAAPPKDLADMPGWKHDPKL	7.0	6.0-8.0 pH	100	–	61	100	–	65	39
